We go through 105 substances from the supplement of paper PMC12042874.

± gives the uncertainty stated by the source.

This data set can be described thus: amyloid nucleation score (Sup35N fusion, yeast selection) (log enrichment); library NNK2; higher = more nucleation; inactive = no reads after selection. An outline of the steps:
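The nucleation score is a DiMSum log enrichment of output over input reads, centred on the mode score of non-aggregating sequences. Sequences under 100 input reads were excluded, and reads came from Illumina sequencing of plasmid inserts. Psi-negative yeast expressing Sup35N fused to peptides of 20 random codons were induced with 100 μM copper sulfate for 24 hours and grown 7 days at 30°C on medium lacking adenine and uracil. Random libraries had three technical output replicates.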
In the case of FMSLTSMLCNLRTNSCMCAR, the amyloid nucleation score is -0.014 ± 0.21.
Next, FMVVC: 0.249 ± 0.39; FMYRDLYRFMYCVVCAQFFH: 4.95 ± 0.05; FNAERFLQSIEMVWWDKGFL: -1.53 ± 0.41.
Substance FNFGNDGYSFNIILWYQRYI yielded an amyloid nucleation score of 6.61 ± 0.063.
FNGVLDWEWHGVAFAWAGLV: the amyloid nucleation score is 0.399 ± 0.65.
FNIVQHVASCGWLTYTWSAA gave an amyloid nucleation score of -0.018 ± 1.1.
Next, FNLMLI: “inactive”; FNLYYSRGLSSCLSYSRLEV: -0.532 ± 1; FNNLFIRTADQEVTILDVTH: -0.031 ± 1.
Next, FNRVLVPRIKNTWILYCYFI: “inactive”; FNVNRLAVLSYVSSWSGVIM: -0.772 ± 0.35.
Next, FNYDIPPVVQGCHISAQLLP: -0.271 ± 0.74; FNYGCFVLDSDHVAGKGILI: “inactive”; FNYPSLFTF: -1.01 ± 1.1.
As to FPKIQSKFSRDIFSDGNEYE, the amyloid nucleation score entry was “inactive”.
Next, FPRSGYITHLDCATR: -0.589 ± 0.55; FQDLDLVHRLHSVSVNLETE: 0.123 ± 1.
Next, FQGEGISTAF: -1.32 ± 0.5; FQIREVGEVLNC: -0.202 ± 1.1.
Next, FQYYDKYLYWFFVNN: -2.12 ± 0.73; FRCGRVTFNLVEYTFPPWIW: -0.78 ± 0.63; FRKEEADYHGYRLYSVAVNA: -0.214 ± 0.36.
For the substance FRKWNSS, the amyloid nucleation score was 4.08 ± 0.072.
Next, FRLLWCMFSL: 0.571 ± 0.13; FRLYPVPESKDLGRPGMPRQ: 0.308 ± 0.23; FRMNEQSPAEWSRSVYFGGG: -0.346 ± 0.49.
For FRNENC, the amyloid nucleation score entry is “inactive”.
Next, FRNNKLYIRVYRSKWTE: -1.22 ± 1.1; FRNSTATLYSVGSFTSKTQL: 1.03 ± 0.19; FRRQSPNMQPSCWTDHGLRG: -0.105 ± 1.1.
Next, FRSFRRIILSFYEVNFGSII: “inactive”; FRSGCQFLWHERLNNNVTNA: 1.54 ± 0.093.
For FSAYLLLLYKN, the amyloid nucleation score is -0.738 ± 0.76.
Next, FSCMISIKRFFRVAKNASGY: 4.84 ± 0.084; FSECLKTTENMKITQKGTPV: 0.459 ± 0.54; FSGSALGCEMRYCSRVYWQR: 4.46 ± 0.063.
FSITCADFICYSLVGGERTP yielded an amyloid nucleation score of 9.559 ± 0.066.
Next, FSKGEATDCSWQ: 0.918 ± 0.34; FSMPTYSSALAFM: -0.352 ± 0.28; FSNISSSMKNKSVRGCECGR: -1.04 ± 0.33.
Next, FSNSPVISFGQ: -0.541 ± 1.
Next, FSRGDIVA: 4.41 ± 0.056; FSRLNSWILRSHGNKVKALT: 0.552 ± 0.66; FSRLTGN: -0.883 ± 0.54.
In turn, FSSILWRFSRLVVRSLVPKS showed an amyloid nucleation score of 0.175 ± 0.27.
Next, FSSLIKTICLMTAMAEGMSP: -0.258 ± 0.76; FSSSYP: “inactive”; FSVLILFMLIWNNGCYLKED: 1.94 ± 0.11.
With FTASFFP, the amyloid nucleation score worked out at 0.05 ± 0.26.
Next, FTCTGRRVYAQLKNVFIFVL: 1.92 ± 0.19; FTFILLGYVWRLLMYIPGMR: 0.236 ± 1.1; FTIFNKLCCVNYWVCILCYR: 5.144 ± 0.049.
Regarding FTIHYAGTGCWMGMYINSDY, the amyloid nucleation score was found to be 2.44 ± 0.062.
Next, FTILRDFC: 0.152 ± 0.77; FTLLVYIFLYMMLIGNSFFM: “inactive”; FTNAPVLFVN: “inactive”.
Next, FTNFNDYLFWNYMNWTGYML: “inactive”; FTSMLS: 0.374 ± 0.64.
Next, FTVLEHRMFILSYVLRTRVW: 0.468 ± 0.74; FVFLFMRLKDGFYATIYISH: “inactive”.
In turn, FVFVAARAFCRSVSNVSD yielded an amyloid nucleation score of -0.399 ± 0.55.
Next, FVLCT: 1.15 ± 0.33; FVLCYTTGFLVTFLLEWFFS: 0.228 ± 1.
Substance FVLFENSGLFMGLDICMLCQ registered an amyloid nucleation score of 1.01 ± 0.32.
Next, FVLLGGMTWHT: 5.512 ± 0.027.
FVLNYLI displayed an amyloid nucleation score of 0.709 ± 0.17.
Next, FVNATVLR: 1.24 ± 0.16.
Next, FVNLRVILH: 5.18 ± 0.052; FVQSNYDSSF: “inactive”.
Next, FVSVIILCFCVIQPMNLNSV: 1.4 ± 0.15; FVSYED: -0.793 ± 1.1.
On to FVYQCMCFNADLCFKFRLCS, for which the amyloid nucleation score stood at 7.883 ± 0.065.
Next, FVYTLAYNRRWYSRAVSFES: -0.461 ± 0.79; FWEKSSKVFW: 3.33 ± 0.13.
Next, FWHLYPQCQDWSDLQN: “inactive”; FWIEDF: -0.291 ± 1.1.
FWKNYQIMMRMCDKHVIEDV had an amyloid nucleation score of 2.95 ± 0.11.
Next, FWQSSLDSS: 0.213 ± 0.38; FWSDSVVFRPDTVRLERSLG: 0.025 ± 1.1; FWVMANYRH: 3.18 ± 0.047.
Next, FYATYSSLRLGVVTIIPPGL: 4.49 ± 0.087.
Next, FYCCIITYLDMA: 6.667 ± 0.026; FYLGVALVHNKAWLFLWKDD: “inactive”; FYLKFHRCGR: 1.3 ± 0.11.
Regarding FYMLASPSSTLDSTPKVRSC, the amyloid nucleation score was -0.665 ± 1.1.
Next, FYPWDSVCEFSLGCMSNPQA: 0.158 ± 0.3; FYRHCFVVTNKRAPSKSRSK: 4.61 ± 0.11.
Next, FYRNPHR: 0.706 ± 0.81; FYYSLTMRLD: -0.322 ± 0.42.
With FYYYLFFLAIISCTGYLALS, the amyloid nucleation score was 0.286 ± 0.42.
In turn, GAHFYRTVMNVRSTLSRYIN displayed an amyloid nucleation score of -0.507 ± 0.48.
Next, GAHNMREGAAPGRKRVVLAM: 1.22 ± 0.35; GALVR: -1.08 ± 0.55.
Next, GAMDLHQWASMMNMFPAMCV: 0.731 ± 0.47; GASRVAPVCQTTKSLKCMAK: -1.17 ± 1.1; GATRALRSVTRR: 3.26 ± 0.13.
Next, GCDLYL: -0.256 ± 0.79.
For GCFERGNLFNFV, the amyloid nucleation score result is “inactive”.
Next, GCGFFDFSVSWL: -1.24 ± 0.78; GCKVIYIYIIHIFKCIITNW: “inactive”.
Next, GCVCDVGPVTVRGVNGVLVS: 1.45 ± 0.26.
Next, GCVGAVRRLEGSIVYEDRTL: 0.944 ± 0.25; GCVLSVSWWVGSSLVNWGYY: 5.356 ± 0.052; GCVPVRYIARSAWNNPDLPN: 0.829 ± 0.57.
